Measured values from article PMC6683731 (The Journal of Cell Biology, 2019).
Like-named read-outs stand apart in the source and are kept apart here.

T1: cohesin subcomplex containing SA2 (residues 80–1060) and Scc1 (residues 281–420) (UniProt Q8N3U4 80-1060; O60216 281-420)
T1 sequence (looked up) 1: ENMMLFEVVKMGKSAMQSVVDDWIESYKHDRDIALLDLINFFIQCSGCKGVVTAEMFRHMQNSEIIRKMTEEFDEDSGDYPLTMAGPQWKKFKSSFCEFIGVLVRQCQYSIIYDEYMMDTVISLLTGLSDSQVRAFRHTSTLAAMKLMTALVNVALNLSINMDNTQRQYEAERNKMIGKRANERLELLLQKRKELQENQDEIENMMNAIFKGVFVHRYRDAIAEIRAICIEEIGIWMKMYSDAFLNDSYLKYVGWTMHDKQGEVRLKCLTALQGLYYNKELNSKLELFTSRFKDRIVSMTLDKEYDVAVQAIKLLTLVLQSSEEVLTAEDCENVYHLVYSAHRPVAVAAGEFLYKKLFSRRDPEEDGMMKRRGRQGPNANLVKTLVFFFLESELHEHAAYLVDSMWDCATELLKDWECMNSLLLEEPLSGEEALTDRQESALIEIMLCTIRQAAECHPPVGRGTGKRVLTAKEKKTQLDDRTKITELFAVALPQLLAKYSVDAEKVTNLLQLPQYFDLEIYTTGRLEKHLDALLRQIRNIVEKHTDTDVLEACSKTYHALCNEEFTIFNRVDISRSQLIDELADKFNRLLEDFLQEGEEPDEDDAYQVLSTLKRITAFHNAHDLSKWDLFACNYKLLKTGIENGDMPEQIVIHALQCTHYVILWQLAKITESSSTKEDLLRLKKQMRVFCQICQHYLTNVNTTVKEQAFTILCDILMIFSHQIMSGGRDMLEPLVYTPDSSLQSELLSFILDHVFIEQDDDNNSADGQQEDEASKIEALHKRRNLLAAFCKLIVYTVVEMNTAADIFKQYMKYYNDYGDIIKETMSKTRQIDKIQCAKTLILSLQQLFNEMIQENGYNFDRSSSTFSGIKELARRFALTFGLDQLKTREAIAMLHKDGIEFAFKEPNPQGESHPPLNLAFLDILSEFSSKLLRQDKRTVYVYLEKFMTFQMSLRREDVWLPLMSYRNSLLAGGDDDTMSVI
T1 sequence (looked up) 2: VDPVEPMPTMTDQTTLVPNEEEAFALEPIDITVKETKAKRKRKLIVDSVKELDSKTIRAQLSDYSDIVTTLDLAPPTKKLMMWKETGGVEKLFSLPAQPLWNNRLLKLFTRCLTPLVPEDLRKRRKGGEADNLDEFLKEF


Tests used:
Test in all cases: pull-down
His6-SET (full length) [1] = biological target: T2, His6-SET (full length) (human, UniProt Q01105 1-290)
T2 sequence (Q01105 whole entry): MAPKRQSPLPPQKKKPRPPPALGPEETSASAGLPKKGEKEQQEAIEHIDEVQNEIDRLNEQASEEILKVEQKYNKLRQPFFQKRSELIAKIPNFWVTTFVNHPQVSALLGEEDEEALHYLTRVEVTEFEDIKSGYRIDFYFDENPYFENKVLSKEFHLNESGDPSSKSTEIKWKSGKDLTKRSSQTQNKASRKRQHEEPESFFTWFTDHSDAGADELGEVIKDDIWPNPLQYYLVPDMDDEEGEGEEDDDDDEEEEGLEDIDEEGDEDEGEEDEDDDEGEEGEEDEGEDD

[2] = biological target: T1, cohesin subcomplex containing SA2 …
[3] = biological target: T1, cohesin subcomplex containing SA2 …; remark: listed apart in the source
His6-SET (full length) [4] = biological target: T2, His6-SET (full length); remark: listed apart in the source

Row | binding result (His6-SET (full length) [1]) | Binder | further results
1 | binds | GST-Sgo1 fragment 115–353 (domain or fragment, human, UniProt Q5FBB7 115-353, looked up) QEICSSGMDPNSDDSSRNLFVKDLPQIPLEETELPGQGESFQIEDQIPTIPQDTLGVDFDSGEAKSTDNVLPRTVSVRSSLKKHCNSICQFDSLDDFETSHLAGKSFEFERVGFLDPLVNMHIPENVQHNACQWSKDQVNLSPKLIQPGTFTKTKEDILESKSEQTKSKQRDTQERKREEKRKANRRKSKRMSKYKENKSENKKTVPQKKMHKSVSSNDAYNFNLEEGVHLTPFRQKVS | 
2 | binds | GST-Sgo1 ΔCohesin (241–387 depleted of 313–353) (domain or fragment, human, UniProt Q5FBB7 241-387, looked up) VQHNACQWSKDQVNLSPKLIQPGTFTKTKEDILESKSEQTKSKQRDTQERKREEKRKANRRKSKRMSKYKENNDSNREENNESEVSLCESSGSGDDSDDLYLPTCK | 
3 |  | GST-Sgo1 ΔSET (241–387 depleted of 281–310) (domain or fragment, human, UniProt Q5FBB7 241-387, looked up) VQHNACQWSKDQVNLSPKLIQPGTFTKTKEDILESKSEQTENKSENKKTVPQKKMHKSVSSNDAYNFNLEEGVHLTPFRQKVSNDSNREENNESEVSLCESSGSGDDSDDLYLPTCK | binding result [2]: binds
4 | binds | GST-Sgo1 WT (241–387) (domain or fragment, human, UniProt Q5FBB7 241-387, looked up) VQHNACQWSKDQVNLSPKLIQPGTFTKTKEDILESKSEQTKSKQRDTQERKREEKRKANRRKSKRMSKYKENKSENKKTVPQKKMHKSVSSNDAYNFNLEEGVHLTPFRQKVSNDSNREENNESEVSLCESSGSGDDSDDLYLPTCK | binding result [2]: binds
5 |  | GST-Sgo1 (241–387), Cdk1-phosphorylated (domain or fragment, human, UniProt Q5FBB7 241-387, looked up, phospho-Thr346 (Cdk1/cyclin B1; detected with antibody against Sgo1 pT346; how much was phosphorylated could not be measured)) VQHNACQWSKDQVNLSPKLIQPGTFTKTKEDILESKSEQTKSKQRDTQERKREEKRKANRRKSKRMSKYKENKSENKKTVPQKKMHKSVSSNDAYNFNLEEGVHLTPFRQKVSNDSNREENNESEVSLCESSGSGDDSDDLYLPTCK | binding result [3]: binds; binding result (His6-SET (full length) [4]): binds
6 | binds | GST-Sgo1 fragment 200–353 (domain or fragment, human, UniProt Q5FBB7 200-353, looked up) NSICQFDSLDDFETSHLAGKSFEFERVGFLDPLVNMHIPENVQHNACQWSKDQVNLSPKLIQPGTFTKTKEDILESKSEQTKSKQRDTQERKREEKRKANRRKSKRMSKYKENKSENKKTVPQKKMHKSVSSNDAYNFNLEEGVHLTPFRQKVS | 
7 | binds | GST-Sgo1 fragment 280–353 (domain or fragment, human, UniProt Q5FBB7 280-353, looked up) TKSKQRDTQERKREEKRKANRRKSKRMSKYKENKSENKKTVPQKKMHKSVSSNDAYNFNLEEGVHLTPFRQKVS | 
